The values that follow come from patent US20110092413A1, “Albumin-Fused Kunitz Domain Peptides” (Novozymes Biopharma DK A/S, priority 2002, published 2011).

The Ki is the equilibrium dissociation constant of an inhibitor or competing ligand from its target.

For data set [1] the following is noted: about 840 mg BPTI, 80 open-heart surgery patients (Fraedrich et al.); cited from earlier work.
Data set [2] has as its target human plasma kallikrein (Homo sapiens, UniProt P03952). As to the kind of experiment: DX-88 inhibition of human plasma kallikrein. It is filed as biochemical.
Data set [3] in a line: Serum half-time of DX-88. The note with it: in vivo.
Data set [4] can be described thus: DX-88 tested in the clinic for treatment of hereditary angioedema (HAE). It is filed as in vivo, human.
The conditions of data set [5]: rabbit, in vivo.
Text: (§1) After radiolabeling, the two labeled protein preparations were purified from unbound label by size exclusion chromatography (SEC). Fractions from the SEC column having the highest radioactivity were pooled. The purified, radiolabeled preparations were characterized for specific activity by scintillation counting and for purity by SEC using a Superose-12 column equipped with an in-line radiation detector.
(§2) New Zealand White rabbits (ca. 2.5 Kg) were used for clearance measurements, with one animal each used for of the two labeled protein preparations. The radiolabeled preparation was injected into the animal via an ear vein. One blood sample was collected per animal per time point with early time points at approximately 0, 7, 15, 30, and 90 minutes and later time points at 4, 8, 16, 24, 48, 72, 96, 144, 168, and 192 hours. Samples (about 0.5 ml) were collected into anticoagulant (EDTA) tubes. Cells were separated from the plasma/serum fraction by centrifugation. The plasma fraction was divided into two aliquots. One plasma aliquot was stored at −70° C. and the other aliquot was kept at 4° C. for immediate analyses. Sample analyses included radiation counting for clearance rate determinations and SEC chromatography for in vivo stability.
Data set [6] addresses T1, human neutrophil elastase (Homo sapiens, UniProt P08246).
T1 sequence (P08246 30-267): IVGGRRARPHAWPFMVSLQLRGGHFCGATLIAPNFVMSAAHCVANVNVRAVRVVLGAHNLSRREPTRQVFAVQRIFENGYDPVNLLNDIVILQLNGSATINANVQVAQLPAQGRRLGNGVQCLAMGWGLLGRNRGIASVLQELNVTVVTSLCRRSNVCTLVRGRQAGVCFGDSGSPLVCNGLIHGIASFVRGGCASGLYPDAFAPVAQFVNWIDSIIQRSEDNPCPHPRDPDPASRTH
The note with it: Table 4, Biological Activity; read-out: Inhibition of human neutrophil elastase, Ki; cited from earlier work.

The nature of data set [7]: Pharmacokinetic study in rabbits: plasma clearance of 125I-labeled protein, SEC of plasma.
Text: as §1, §2
The subject of data set [8] is Pseudomonas aeruginosa. The note with it: rat model of CF, after seven days of treatment (Cantin and Woods 1999); cited from earlier work.

human plasma kallikrein, sequence (P03952 391-638 limits assumed): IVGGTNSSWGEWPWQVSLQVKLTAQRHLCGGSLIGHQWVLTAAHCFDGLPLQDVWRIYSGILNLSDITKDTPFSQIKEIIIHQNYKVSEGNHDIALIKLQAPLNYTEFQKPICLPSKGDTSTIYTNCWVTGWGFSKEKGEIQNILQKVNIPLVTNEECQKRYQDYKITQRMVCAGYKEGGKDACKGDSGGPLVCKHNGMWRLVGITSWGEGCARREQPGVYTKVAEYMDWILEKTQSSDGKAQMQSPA
human plasma kallikrein, sequence (P03952 20-390 partner limits assumed): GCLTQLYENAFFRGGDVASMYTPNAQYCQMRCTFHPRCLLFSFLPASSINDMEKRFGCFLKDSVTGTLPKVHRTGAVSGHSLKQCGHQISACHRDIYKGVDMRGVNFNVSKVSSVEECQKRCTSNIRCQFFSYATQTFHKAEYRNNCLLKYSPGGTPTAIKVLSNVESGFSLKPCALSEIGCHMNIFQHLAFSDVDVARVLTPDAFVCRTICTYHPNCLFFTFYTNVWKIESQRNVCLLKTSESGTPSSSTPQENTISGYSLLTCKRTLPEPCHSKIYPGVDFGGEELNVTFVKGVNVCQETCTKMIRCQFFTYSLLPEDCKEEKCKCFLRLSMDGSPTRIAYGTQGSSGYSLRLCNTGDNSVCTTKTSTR

For the substance “bovine pancreatic trypsin inhibitor [BPTI]”, in data set [1], the “decrease of mean amount transfused” value is 74% and the “reduction of blood loss” value is recorded as “almost half”.

“DX-88: Kunitz domain derived from the first Kunitz domain of human LACI, inhibits human plasma kallikrein, SEQ ID NO:48 (EAMHSFCAFKADDGPCRAAHPRWFFNIFTRQCEEFIYGGCEGNQNRFESLEECKKMCTRD; Description of Sequence DX-88 Kunitz domain peptide)” gave a Ki in data set [2] of about 0.04 nM. Moreover, the serum half-time entry in data set [3] is on record as “not more than 1 hour”. For the same substance, in data set [4], the “initial clinical data in HAE” value is “safe and effective”.

As for “DX-890: Kunitz domain peptide, inhibitor of human neutrophil elastase, SEQ ID NO:20 (EACNLPIVRGPCIAFFPRWAFDAVKGKCVLFPYGGCQGNGNKFYSEKECREYCGVP; Description of Sequence DX-890 Kunitz domain peptide)”, in data set [5], the “% α” value came to 75% and the “% β” value was determined as 25%. For the same substance, the Ki in data set [6] is about 5 pM. Further, in data set [7] (FIG. 6), the “in vivo stability by SEC analysis of plasma” value is on record as “relatively rapid association of label with higher molecular weight plasma components”. This substance also returned a T1/2β in data set [7] (restated in hours) of 2.75 h.

alpha1 antitrypsin: the bacterial counts in data set [8] is 0.2±0.4.
